T1: N-terminal FLAG-tagged cynomolgus monkey ROBO4, cynoROBO4-1 (pCI-FLAG-cynoROBO4-1) (cynomolgus monkey, UniProt Q8WZ75 28-1007 (human entry))
T1 chain: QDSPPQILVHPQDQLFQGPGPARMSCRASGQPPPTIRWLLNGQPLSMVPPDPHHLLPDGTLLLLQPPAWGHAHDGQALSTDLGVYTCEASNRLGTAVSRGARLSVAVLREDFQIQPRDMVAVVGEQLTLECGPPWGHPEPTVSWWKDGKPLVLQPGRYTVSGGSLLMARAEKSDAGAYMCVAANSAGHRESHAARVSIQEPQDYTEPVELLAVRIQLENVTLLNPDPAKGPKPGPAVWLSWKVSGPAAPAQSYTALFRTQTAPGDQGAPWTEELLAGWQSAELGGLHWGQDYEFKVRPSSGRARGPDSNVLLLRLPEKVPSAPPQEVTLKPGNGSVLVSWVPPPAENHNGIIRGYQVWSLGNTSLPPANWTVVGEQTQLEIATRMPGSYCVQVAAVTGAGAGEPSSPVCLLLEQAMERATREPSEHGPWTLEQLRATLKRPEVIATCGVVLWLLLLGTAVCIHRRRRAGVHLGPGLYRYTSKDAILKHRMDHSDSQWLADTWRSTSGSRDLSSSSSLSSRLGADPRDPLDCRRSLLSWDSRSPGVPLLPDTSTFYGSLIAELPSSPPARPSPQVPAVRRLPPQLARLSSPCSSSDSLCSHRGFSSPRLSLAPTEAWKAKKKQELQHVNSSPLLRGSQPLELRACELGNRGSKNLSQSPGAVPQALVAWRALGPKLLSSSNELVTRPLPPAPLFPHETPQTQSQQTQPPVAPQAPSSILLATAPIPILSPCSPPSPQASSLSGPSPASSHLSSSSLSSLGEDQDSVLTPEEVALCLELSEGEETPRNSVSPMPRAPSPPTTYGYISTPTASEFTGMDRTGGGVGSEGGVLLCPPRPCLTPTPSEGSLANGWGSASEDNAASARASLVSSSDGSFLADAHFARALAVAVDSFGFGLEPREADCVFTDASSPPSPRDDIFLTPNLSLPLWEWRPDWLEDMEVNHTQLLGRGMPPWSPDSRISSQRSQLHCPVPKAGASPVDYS

T2: N-terminal FLAG-tagged human ROBO4 extracellular region/domain deletion variant hROBO4-341 (human, UniProt Q8WZ75 341-1007)
T2 construct: On transfected HEK293 cells; also called pCI-FLAG-hROBO4-341; pCI-hROBO4-341
T2 sequence: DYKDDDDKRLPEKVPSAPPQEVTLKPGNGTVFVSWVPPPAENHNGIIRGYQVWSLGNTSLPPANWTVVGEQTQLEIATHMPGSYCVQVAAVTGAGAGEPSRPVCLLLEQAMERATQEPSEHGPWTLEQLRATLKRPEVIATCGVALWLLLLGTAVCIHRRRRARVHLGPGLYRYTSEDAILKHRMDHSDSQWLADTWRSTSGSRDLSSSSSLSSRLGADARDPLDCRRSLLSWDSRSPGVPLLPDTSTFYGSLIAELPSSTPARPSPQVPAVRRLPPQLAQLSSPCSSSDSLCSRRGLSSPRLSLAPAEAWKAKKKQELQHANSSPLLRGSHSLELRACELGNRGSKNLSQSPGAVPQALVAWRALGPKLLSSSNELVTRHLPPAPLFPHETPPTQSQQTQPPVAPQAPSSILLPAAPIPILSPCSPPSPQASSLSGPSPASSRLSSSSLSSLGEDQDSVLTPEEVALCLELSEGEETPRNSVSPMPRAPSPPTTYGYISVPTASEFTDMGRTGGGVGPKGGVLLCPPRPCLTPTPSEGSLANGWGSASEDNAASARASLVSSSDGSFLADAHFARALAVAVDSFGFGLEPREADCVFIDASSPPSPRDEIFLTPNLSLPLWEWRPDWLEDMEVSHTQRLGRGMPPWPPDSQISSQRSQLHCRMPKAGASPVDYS


How the values were obtained:
[1] = target: T1, N-terminal FLAG-tagged cynomolgus …; assay: flow cytometry (FC500), HEK293 cells transfected with pCI-FLAG-cynoROBO4-1, antibody at 10 µg/mL, FITC goat anti-human IgG Fc; control histogram IgG (human IgG)
[2] = target: T2, N-terminal FLAG-tagged human ROBO4 …; assay: flow cytometry, HEK293 cells transfected with pCI-FLAG-hROBO4-341, anti-mouse IgG FITC; control histogram IgG (Mouse IgG2a)
Method: HEK293 cells were inoculated at a concentration of 1.5×10⁶ cells/dish to a 60-mm dish (manufactured by Corning Inc.) and cultured overnight in a DMEM medium containing 10% FBS at 37° C. under 5% CO₂ conditions. […] On the next day, the expression vector-transfected cells were treated with TrypLE Express (manufactured by Life Technologies Corp.), washed with PBS containing 5% FBS, and then suspended in PBS containing 5% FBS. The obtained cell suspension was used in flow cytometry analysis.
Each cell suspension prepared in 4)-5-1 was centrifuged, and the supernatant was removed. Then, MAb1, a positive control Monoclonal ANTI-FLAG M2 antibody produced in mouse, or a negative control Mouse IgG2a was added at a concentration of 10 μg/mL to 2×10⁵ expression vector-transfected cells, and the resulting suspension was left standing at 4° C. for 1 hour. The cells were washed once with PBS containing 5% FBS. Then, Anti-Mouse IgG FITC conjugate diluted 1000-fold with PBS containing 5% FBS was added thereto, and the resulting suspension was left standing at 4° C. for 1 hour. […] Data was analyzed using Flowjo. The histogram of FITC fluorescence intensity was prepared. The antibody was determined to bind to a cell when the histogram of MAb1 was shifted to a stronger fluorescence intensity region compared with the histogram of the negative control Mouse IgG2a. […]

binding result [1]	binding result [2]	Binder
binds		humanized MAb1 antibody H-2143 (antibody, human IgG2, kappa, V domains shown, Human IgG2 / kappa constant regions; also called hMAb1-H4-type heavy chain + hMAb1-L2-type light chain) VH: EVQLVESGGGLVQPGGSLRLSCAASGFTFSTYAMSWVRQAPGKRLEWVATISQGGTYTYYPDSVKGRFTISRDNAKNTLYLQMNSLRAEDTAVYYCARLIYYDYLDYWGQGTLVTVSS VL: DIVMTQSPLSLPVTLGEPASISCRSSQSLENENKNLYLNWYLQKPGQSPQLLIYRVSNRFSGVPDRFSGSGSGTDFTLKISRVEAEDVGVYYCLQVTHVPWTFGPGTKVDIKR
	no binding (tested: 10 µg/mL)	anti-ROBO4 mouse monoclonal antibody MAb1 (antibody, mouse IgG1, V domains shown, Mouse IgG1 (gamma1), kappa light chain, purified from hybridoma supernatant; also called parent antibody MAb1) VH: EVQLVESGGGLVKPGGSLKLSCAASGFTFSTYAMSWVRQTPEKRLEWVATISNGGTYTYYPDSVKGRFTISRDNAENTLYLQMSSLRSEDTAMYFCARLIYYDYLDYWGHGTTLTVSS VL: DAVMTQTPLSLPVSLGDQASISCRSSQSLENSNGNTYLNWYFQKPGQSPQLLIYRVSNRFSGVLDRFSGSGSGTDFTLKISRVEAEDFGVYFCLQVTHVPWTFGGGTKLEIKR

From patent US20150098945A1 (Daiichi Sankyo, published 2015)
